Test results taken from patent publication US20240400663A1 (Regeneron, published 2024).

Key:
Experiment in all cases: cell-based or functional assay
[1] = target: T1, PfRH5 of Plasmodium falciparum strain 7G8 (on live parasites) (Plasmodium falciparum)
[2] = target: T2, PfRH5 of Plasmodium falciparum strain FCR-1/FVO (on live parasites) (Plasmodium falciparum)
[3] = target: T3, PfRH5 of Plasmodium falciparum strain Dd2 (on live parasites) (Plasmodium falciparum)
[4] = target: PfRH5 of Plasmodium falciparum strain W2-mef (on live parasites) (Plasmodium falciparum)
[5] = target: T2, PfRH5 of Plasmodium falciparum strain …; remark: listed apart in the source
[6] = target: T3, PfRH5 of Plasmodium falciparum strain …; remark: listed apart in the source
[7] = target: T1, PfRH5 of Plasmodium falciparum strain …; remark: listed apart in the source
[8] = target: PfRH5 of Plasmodium falciparum strain RF7 (on live parasites) (Plasmodium falciparum)
[9] = target: PfRH5 of Plasmodium falciparum strain Cam3.II (on live parasites) (Plasmodium falciparum)
[10] = target: PfRH5 of Plasmodium falciparum strain HB3 (on live parasites) (Plasmodium falciparum)
[11] = target: PfRH5 of Plasmodium falciparum strain D10 (on live parasites) (Plasmodium falciparum)

Binder | Max growth inhibition (%) 7G8, no chloroquine [1] [%] | Percent Maximum Growth Inhibition, FCR-1/FVO, mAb (6.67 µM) + AHIS (10%) [2] [%] | Percent Maximum Growth Inhibition, FCR-1/FVO, mAb (6.67 µM) + ANS (10%) [2] [%] | Percent Maximum Growth Inhibition, FCR-1/FVO, mAb (6.67 µM) + HHIS (10%) [2] [%] | Percent Maximum Growth Inhibition, FCR-1/FVO, mAb (6.67 µM) + HNS (10%) [2] [%] | Percent Maximum Growth Inhibition, FCR-1/FVO, mAb (6.67 µM) + No serum [2] [%] | Maximum growth inhibition (%) Dd2 [3] [%] | Max growth inhibition (%) W2-mef [4] [%] | Max growth inhibition (%) FCR-1/FVO [5] [%] | Max growth inhibition (%) Dd2 [6] [%] | Max growth inhibition (%) 7G8 [7] [%] | Max growth inhibition (%) RF7 [8] [%] | Max growth inhibition (%) Cam3.II [9] [%] | Max growth inhibition (%) HB3 [10] [%] | Max growth inhibition (%) D10 [11] [%]
H1H29100P (antibody, V domains shown) VH: QLQLQESGPGLVKPSETLSLTCTVSGGSISSSSYYWGWIRQPPGKGLEWIGIIYYSGSTYYNPSLKSRVTISVDTSKNQFSLKLSSVTAADTAVYYCARQDREALFDYWGQGTLVTVSS VL: EIVLTQSPDFQSVTPKEKVTITCRASQRIGSSLHWYQQKPDQSPKLLIKYASQSFSGVPSRFSGSGSGTDFTLTINSLEAEDAATYYCHQSSTLPTFGQGTRLEIKR | 48.9 | 82.5 | 73.2 | 81.9 | 82.4 | 83.9 | 65.7 | 67.3 | 66.9 | 64.6 | 66.4 | 17 | 52.4 | 62.6 | 81.7
H1H29089P (antibody, V domains shown) VH: EVQLVQSGAEVKKPGESLKISCKGSGYSFTSYWIVWVRQMPGKGLEWMGIIYPGDSDTRYSPSFQGQVTISADKSISTAYLQWSSLKASDTAMYYCARQDITGTTGFDYWGQGTLVTVSS VL: DIQMTQSPSSLSASVGDRVTITCRASQSIRNYLNWYQQKPGKAPKLLIYAASSLQSGVPSRFSGSGSGTDFTLTISSLQPEDFATYFCQQSYSTPFTFGPGTKVDIKR | 51.1 | 84.3 | 75.7 | 85.2 | 85 | 85.3 |  | 66.4 | 66 | 71.3 | 70.1 | 28.9 | 56.2 | 59.1 | 82.3
